The chains are these.
B1: HDV Ribozyme (parent)
chain: GGCCGGCAUGGUCCCAGCCUCCUCGCUGGCGCCGGCUGGGCAACAUUCCGAGGGGACCGUCCCCUCGGUAAUGGCGAAUGGGACCCA

The variants in this series derive from B1. As to the kind of experiment: self-cleavage, relative activity (ratio to wild type); higher = more cleavage; co-transcriptional.
With GGCCGGCAUGGUCCAAGCCUCCUCGCUGGCGCCGGCUGGGCAACAUUCCGAGGGGACCGGCCCCUCGGUAAUGGCGAAUGGGACCCA, the self-cleavage worked out at 0.731.

For GGCCGGCAUGGUCCCAGCCUCCUCGCUGCCGCCGGCUGGGCAACAUUCCGUGGGGACCGUCCCCUCGGUAAUGGCGAAUGGGACCCA, the self-cleavage is 0.0308. The figure for GGCCUGCAUGGUCCCAGCCUCCUCGCUGGCGCCGGCUGGGCAACAUUCCGAGGGGCCCGUCCCCUCGGUAAUGGCGAAUGGGACCCA is 0.831; for GGCCGACAUGGUCCCAGCCUCCUCGCUGGCGCCGGCUGGGCAACAUUCCGAGGGGACCGUCCCCUCGGUAAUUGCGAAUGGGACCCA it is 0.111; for GGCCGGCAUGGUCCCAGCCUCCUCGCUGCCGCCGGCUGGGCAACAUUCCGAGGGGACCGUCCCCUCGGUAAUGGCCAAUGGGACCCA it is 0.0386. The figure for GGCCGGCAUGGUCGCAACCUCCUCGCUGGCGCCGGCUGGGCAACAUUCCGAGGGGACCGUCCCCUCGGUAAUGGCGAAUGGGACCCA is 0.123.

Take GGCGGGCAUGGUCCCAGCCUCCUCGCUGGCGCCGGCUGGGCAUCAUUCCGAGGGGACCGUCCCCUCGGUAAUGGCGAAUGGGACCCA: the self-cleavage was determined as 0.0415. Then GGCGGGCAUUGUCCCAGCCUCCUCGCUGGCGCCGGCUGGGCAACAUUCCGAGGGGACCGUCCCCUCGGUAAUGGCGAAUGGGACCCA, with 0.0779; and GGCCGGAAUGGUCCCAGCCUCCUCGCUGGCGCCGGCUGGGCAACAUUCCGAUGGGACCGUCCCCUCGGUAAUGGCGAAUGGGACCCA, with 0.462. For GGCCGGCAUGGUCCCAGCCUCCUCGCUGGCGCCGGCUGGGCAACAUUCCGAGGGGACCAUCCCCUCGGUAAUGGCGCAUGGGACCCA, the self-cleavage was 0.475. GGCCGGCAUGGUCCCAGCCUCCUCGCUGGCCCCGGCUGCGCAACAUUCCGAGGGGACCGUCCCCUCGGUAAUGGCGAAUGGGACCCA: the self-cleavage came to 0.0475. Then GGCCGGCAUGGUCCCAGCCUCGUCGCUGGCGCCGGCUGGGCAACAUUCCGAGGGGGCCGUCCCCUCGGUAAUGGCGAAUGGGACCCA, with 0.0875; and GGCCGGCAUCGUCCCAGCCUCCUCGCUGGCGCCGGCUGGGCAACAUUCCGAGGGGACCGACCCCUCGGUAAUGGCGAAUGGGACCCA, with 0.932. Then GGCCGGCAUGGUCCCAGCCUGCUCGCUGGCGCCGGCUGGGCAACAUUCCGAGGGGACCGUCCCCUCGGUAAUGGCGAAUUGGACCCA, with 0.0963; and GGCCGGCAUGGUCCCAGCCUCUUCGCUGGCGCCGGCUGGGCAACAUUCCGAGGGGACCGUCCCCUCGGUAAAGGCGAAUGGGACCCA, with 0.219; and GGCCGGCAUGGUCCCAGCCUCCUCGCUGGCGCCGGCUGGGCAACAUUCCGAGGGGACAGUCCCCACGGUAAUGGCGAAUGGGACCCA, with 0.9. Then GGCCGGCAUGGUCCCAUCCUCCGCGCUGGCGCCGGCUGGGCAACAUUCCGAGGGGACCGUCCCCUCGGUAAUGGCGAAUGGGACCCA, with 0.0692. As for GGCCGGCAUGGUCCCAGCCUCCUCGCUGGCGCCGGCUGGGCAACAUUCCGAGAGGACCGUCCCGUCGGUAAUGGCGAAUGGGACCCA, the self-cleavage came to 0.769. Then GUCCGGCAUGGUCCCAGCCUCCUCGCUGGCGCCGGCUGGGCAACAUUCCGAGGGGACCGUCCCCUCGGUAAUGACGAAUGGGACCCA, with 0.0163. Take GGCCGGCAUGGUACCAGCCUCCUCGCUGGGGCCGGCUGGGCAACAUUCCGAGGGGACCGUCCCCUCGGUAAUGGCGAAUGGGACCCA: the self-cleavage was determined as 0.0282. Then GGCCGGCAUGGUCCCAGCCUCCUCGCUGGCGCCGGCUGGGCAACAUUCCGAGGGGACCGUCCCCUCGGUAUUCGCGAAUGGGACCCA, with 0.54; and GGCCCGCAUGGGCCCAGCCUCCUCGCUGGCGCCGGCUGGGCAACAUUCCGAGGGGACCGUCCCCUCGGUAAUGGCGAAUGGGACCCA, with 0.0831. In the case of GGCCGGCAUGGUCCCAGCCUGCUCGCUGGCGCCGGCUGGGCAACAUUCCGAGGGGACCGUCCCCUCGGUAAUGGCGAAUGGCACCCA, the self-cleavage is 0.0437. The figure for GGCCGGCAUGGUCCCAGCCUCCUCGCUGGCGCCGGCUGGGCAACAUUCCGAGGGGACCGUCACCUCGGUAAUGACGAAUGGGACCCA is 0.619; for GGCCGGCAUGGUCCCAGCCUCCUCGCUGGCGCCGUCUGGGCAACAUUCCGAGGAGACCGUCCCCUCGGUAAUGGCGAAUGGGACCCA it is 0.499. For GGCCGGCAUGGUCCCAGCCUUCUCGCUGGCGCCGGCUGGGCAACAUUCCGAGGGGACCGUCCCUUCGGUAAUGGCGAAUGGGACCCA, the self-cleavage is 0.17. Then GGCCGGCAUGGUCCCAGCCUCCUCGCUGGCGCCGGCUGUGCAACAUUCCGAGGGGACCGUCCCCUCGGUGAUGGCGAAUGGGACCCA, with 0.637; and GGCCGGCAUGGUCCCAGCCUCCUCGCUGGCGCCGGCUCGGCAACAUUCCUAGGGGACCGUCCCCUCGGUAAUGGCGAAUGGGACCCA, with 0.157. On to GACCGGCAUGGUCCCAGCCUCCUCGCUGGCGCCGGCUGGGCAACAUUCCGAGGGGCCCGUCCCCUCGGUAAUGGCGAAUGGGACCCA, for which the self-cleavage was 0.148.

For GGCCGGCAUAGUCCCAGCCUCCUCGCUGGCGCCGGGUGGGCAACAUUCCGAGGGGACCGUCCCCUCGGUAAUGGCGAAUGGGACCCA, the self-cleavage was 0.101. The figure for GGCCGGCAUGGUCCCAGCCUCCUCGCUGGCGCCUGCUGGGCAACAUUCCGAGGGGACCGUCCCCUCGGUAAUGGCGAAUGGGCCCCA is 0.133. In the case of GGCCCGCAUGGUCCCAGCCCCCUCGCUGGCGCCGGCUGGGCAACAUUCCGAGGGGACCGUCCCCUCGGUAAUGGCGAAUGGGACCCA, the self-cleavage was found to be 0.0875.

For the origin of these results see the RNAGym collection of RNA variant scans (doi:10.7554/elife.80360).
